Data as given in patent publication US20170008955A1 (CNJ, published 2017).
Positions count from the first letter of the chain named. Each block holds one binder with its values, some of them ahead of it.

Tests used:
[1] = biological target: T1, cSNK:BSA conjugate (bovine, head-to-tail cyclized; conjugated to BSA carrier); experiment: BLI (Octet), compared to hu5E3
T1 construct: also called BSA-cSNK

[2] = biological target: T1, cSNK:BSA conjugate; experiment: BLI (Octet), 1:1 model, BSA-cSNK
Description: Biolayer interferometry (Octet Red92, ForteBio) was used to qualitatively/quantitatively assess the interactions between humanized 5E3 and Δ5E3 mAbs to the cSNK:BSA conjugate. […] MAbs were loaded onto sensors and then washed in PBST. Each sensor was associated with one of several cSNK:BSA standards (100 nM to 0 nM) and then washed in PBST. Data was processed statistically using ForteBio Data Analysis software to determine the strength of antigen-antibody binding (KD). For each mAb analyzed, a 1:1 model provided the “best fit”.

[3] = biological target: T1, cSNK:BSA conjugate; experiment: BLI 2:1 fit, column kdis2; 100 nM row
Description: (§1) Biolayer interferometry (Octet […], ForteBio) was used to qualitatively/quantitatively assess the interactions between humanized versions of 5E3 and cSNK:BSA conjugate. […] MAbs were loaded onto sensors and then washed in PBST. Each sensor was associated with one of several cSNK:BSA standards (100 nM to 0 nM) and then washed in PBST. Data was processed statistically using ForteBio Data Analysis software to determine the strength of antigen-antibody binding (KD). For each mAb analyzed, a 2:1 model provided the “best fit”.

[4] = biological target: T1, cSNK:BSA conjugate; experiment: BLI 2:1 fit, column kon; 12.5 nM row
Description: as §1

[5] = biological target: T1, cSNK:BSA conjugate; experiment: BLI 2:1 fit, column KD2; 25 nM row
Description: as §1

[6] = biological target: T1, cSNK:BSA conjugate; experiment: BLI 2:1 fit, column KD2; 50 nM row
Description: as §1

[7] = biological target: T1, cSNK:BSA conjugate; experiment: BLI 2:1 fit, column KD; 12.5 nM row
Description: as §1

[8] = biological target: T1, cSNK:BSA conjugate; experiment: BLI 2:1 fit, column kon2; 25 nM row
Description: as §1

[9] = biological target: T1, cSNK:BSA conjugate; experiment: BLI 2:1 fit, column kdis; 6.25 nM row
Description: as §1

[10] = biological target: T1, cSNK:BSA conjugate; experiment: BLI 2:1 fit, column kdis; 100 nM row
Description: as §1

[11] = biological target: T1, cSNK:BSA conjugate; experiment: BLI 2:1 fit, column kon; 6.25 nM row
Description: as §1

[12] = biological target: T1, cSNK:BSA conjugate; experiment: BLI 2:1 fit, column kon2; 6.25 nM row
Description: as §1

[13] = biological target: T1, cSNK:BSA conjugate; experiment: BLI 2:1 fit, column kon; 50 nM row
Description: as §1

[14] = biological target: T1, cSNK:BSA conjugate; experiment: BLI 2:1 fit, column kon2; 100 nM row
Description: as §1

[15] = biological target: T1, cSNK:BSA conjugate; experiment: BLI 2:1 fit, column kdis2; 25 nM row
Description: as §1

[16] = biological target: T1, cSNK:BSA conjugate; experiment: BLI 2:1 fit, column kon2; 12.5 nM row
Description: as §1

[17] = biological target: T1, cSNK:BSA conjugate; experiment: BLI 2:1 fit, column kdis2; 12.5 nM row
Description: as §1

[18] = biological target: T1, cSNK:BSA conjugate; experiment: BLI 2:1 fit, column kdis2; 6.25 nM row
Description: as §1

[19] = biological target: T1, cSNK:BSA conjugate; experiment: BLI 2:1 fit, column KD2; 100 nM row
Description: as §1

[20] = biological target: T1, cSNK:BSA conjugate; experiment: BLI 2:1 fit, column KD; 6.25 nM row
Description: as §1

[21] = biological target: T1, cSNK:BSA conjugate; experiment: BLI 2:1 fit, column kdis2; 50 nM row
Description: as §1

[22] = biological target: T1, cSNK:BSA conjugate; experiment: BLI (Octet RED96), 2:1 kinetics, KD2, summary table
Description: as §1
(§2) Table 7 summarizes the affinity constants of humanized 5E3 IgG1, IgG2 and IgG4 constructs. The KD ranges were determined using 2:1 kinetics of binding of analyte (BSA-cSNK) in solution to two different binding sites on the surface (immobilized bivalent, monospecific 5E3) in comparison to murine 5E3 using biolayer interferometry (Octet RED96).

[23] = biological target: T1, cSNK:BSA conjugate; experiment: BLI 2:1 fit, column KD2; 12.5 nM row
Description: as §1

[24] = biological target: T1, cSNK:BSA conjugate; experiment: BLI 2:1 fit, column kdis; 25 nM row
Description: as §1

[25] = biological target: T1, cSNK:BSA conjugate; experiment: BLI 2:1 fit, column kdis; 50 nM row
Description: as §1

[26] = biological target: T1, cSNK:BSA conjugate; experiment: BLI 2:1 fit, column kdis; 12.5 nM row
Description: as §1

[27] = biological target: T1, cSNK:BSA conjugate; experiment: BLI 2:1 fit, column KD2; 6.25 nM row
Description: as §1

[28] = biological target: T1, cSNK:BSA conjugate; experiment: BLI 2:1 fit, column kon; 100 nM row
Description: as §1

[29] = biological target: T1, cSNK:BSA conjugate; experiment: BLI (Octet RED96), 2:1 kinetics, KD1, summary table
Description: as §1, §2

[30] = biological target: T1, cSNK:BSA conjugate; experiment: BLI 2:1 fit, column KD; 50 nM row
Description: as §1

[31] = biological target: T1, cSNK:BSA conjugate; experiment: BLI 2:1 fit, column KD; 100 nM row; 100 nM row, column KD (site with kon 4.16E+06, kdis 3.38E-02)
Description: as §1

[32] = biological target: T1, cSNK:BSA conjugate; experiment: BLI 2:1 fit, column KD; 25 nM row
Description: as §1

[33] = biological target: T1, cSNK:BSA conjugate; experiment: BLI 2:1 fit, column kon; 25 nM row
Description: as §1

[34] = biological target: T1, cSNK:BSA conjugate; experiment: BLI 2:1 fit, column kon2; 50 nM row
Description: as §1

T1 sequence (P02769 25-607 limits assumed): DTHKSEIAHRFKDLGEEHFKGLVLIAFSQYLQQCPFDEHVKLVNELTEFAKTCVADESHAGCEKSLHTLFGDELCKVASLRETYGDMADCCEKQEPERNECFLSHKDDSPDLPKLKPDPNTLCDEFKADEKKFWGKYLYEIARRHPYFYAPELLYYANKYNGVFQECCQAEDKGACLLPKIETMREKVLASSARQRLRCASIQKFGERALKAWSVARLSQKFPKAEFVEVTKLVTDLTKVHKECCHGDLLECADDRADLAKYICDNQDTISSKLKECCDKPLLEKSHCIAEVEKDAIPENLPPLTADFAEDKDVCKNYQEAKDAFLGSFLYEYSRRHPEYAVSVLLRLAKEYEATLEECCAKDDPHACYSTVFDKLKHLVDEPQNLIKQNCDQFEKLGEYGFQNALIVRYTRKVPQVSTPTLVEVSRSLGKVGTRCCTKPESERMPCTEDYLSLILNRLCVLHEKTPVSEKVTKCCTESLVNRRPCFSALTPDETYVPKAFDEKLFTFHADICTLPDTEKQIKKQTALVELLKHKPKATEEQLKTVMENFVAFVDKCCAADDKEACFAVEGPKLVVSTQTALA

binding result [1]: no binding (tested: 100 nM)
B1: 5E3KCDR3-Y91F (antibody, IgG1, V domains shown)
VH: QVQLQQSGPEVKKPGASVKISCKASGYIFTSYYIQWVIHAPGQGLEWIGWIYPGNVNTKYNEKFKGKATLTADKSSSTAYMELSSLTSEDTAVYFCARMDYEAHYWGQGTTVTVSS
VL: DIQMTQSPSSLSASVGDRVTITCRASQEISGYLTWLQQKPEGAIKRLIYAASTLDSGVPKRFSGSRSGSDYSLTISSLQPEDFATYNCLQFANYPRTFGGGTKLEIK
notes: hu5E3 IgG1 vector mutant

Kd [2]: 0.226 nM
B4: HuΔ5E3-IgG2 (KQR) (antibody, V domains shown)
VH: B1 VH with I38K, H39Q, A40R
VL: B1 VL with F91Y
notes: KQR framework 2 variant of hu5E3 on human IgG2

koff [3]: 0.00089 s⁻¹ | kon [4]: 698000 M⁻¹ s⁻¹ | Kd [5]: 8.14 nM | Kd [6]: 1.28 nM | Kd [7]: 1.28 nM | kon [8]: 4.16e+06 M⁻¹ s⁻¹ | koff [9]: 0.00089 s⁻¹ | koff [10]: 0.0338 s⁻¹ | kon [11]: 698000 M⁻¹ s⁻¹ | kon [12]: 4.16e+06 M⁻¹ s⁻¹ | kon [13]: 4.16e+06 M⁻¹ s⁻¹ | kon [14]: 698000 M⁻¹ s⁻¹ | koff [15]: 0.0338 s⁻¹ | kon [16]: 4.16e+06 M⁻¹ s⁻¹ | koff [17]: 0.0338 s⁻¹ | koff [18]: 0.0338 s⁻¹ | Kd [19]: 1.28 nM | Kd [20]: 1.28 nM | koff [21]: 0.00089 s⁻¹ | Kd [22]: 1.28 nM | Kd [23]: 8.14 nM | koff [24]: 0.00089 s⁻¹ | koff [25]: 0.0338 s⁻¹ | koff [26]: 0.00089 s⁻¹ | Kd [27]: 8.14 nM | kon [28]: 4.16e+06 M⁻¹ s⁻¹ | Kd [29]: 8.14 nM | Kd [30]: 8.14 nM | Kd [31]: 8.14 nM | Kd [32]: 1.28 nM | kon [33]: 698000 M⁻¹ s⁻¹ | kon [34]: 698000 M⁻¹ s⁻¹
B5: rehu5E3-IgG2 (antibody, V domains shown)
VH: B1 VH with K12V, T87R, T91S, T111L
VL: B1 VL with V15L, I21L, G42K, S72T, T85D, F91Y
notes: human IgG2/kappa

Kd [2]: 1.04 nM
B6: HuΔ5E3-IgG4 (KQR) (antibody, V domains shown)
VH: B1 VH with I38K, H39Q, A40R
VL: B1 VL with F91Y
notes: KQR framework 2 variant of hu5E3 on human IgG4

binding result [1]: no binding (tested: 100 nM)
B7: 5E3KCDR3-Y94F (antibody, IgG1, V domains shown)
VH: B1 VH
VL: B1 VL with F91Y, Y94F
notes: hu5E3 IgG1 vector mutant

Continued, binder first:

B2: HuΔ5E3-IgG1 (IHR) (antibody, V domains shown)
VH: B1 VH with A40R
VL: B1 VL with F91Y
notes: human IgG1; also called huΔ5E3 IHR Mutation
Kd [2]: 1.43 nM

B3: HuΔ5E3-IgG1 (IQR) (antibody, V domains shown)
VH: B1 VH with H39Q, A40R
VL: B1 VL with F91Y
notes: human IgG1; also called huΔ5E3 IQR Mutation
Kd [2]: 1.26 nM

B8: HuΔ5E3-IgG1 (KHA) (antibody, V domains shown)
VH: B1 VH with I38K
VL: B1 VL with F91Y
notes: human IgG1; also called huΔ5E3 KHA Mutation
Kd [2]: 1.52 nM

B9: HuΔ5E3-IgG1 (KQR) (antibody, V domains shown)
VH: B1 VH with I38K, H39Q, A40R
VL: B1 VL with F91Y
notes: human IgG1; also called hu5E3 IgG1 KQR; huΔ5E3 KQR Mutation
Kd [2]: 1.88 nM

B10: HuΔ5E3-IgG1 (KQA) (antibody, V domains shown)
VH: B1 VH with I38K, H39Q
VL: B1 VL with F91Y
notes: human IgG1; also called huΔ5E3 KQA Mutation
Kd [2]: 1.28 nM
